Measured values published in patent US20170044236A1 (GENERAL HOSPITAL, published 2017).
Where a chain is given by its changes, count along the chain named. No end group written: not given here.

B1: WT knottin 2.5F-Fc fusion protein (rEETI 2.5F) (Fc fusion)
chain: GCPRPRGDNPPLTCSQDSDCLAGCVCGPNGFCG
modifications: ends and bridges not checked; also: C-terminal His tag on knottin, fused at C-terminus to human IgG Fc, Fc fusion dimer
notes: The order of His tag and Fc is read from 'c-terminal his-tagged ... fused at the c-terminus to the Fc fragment'; also called WT 2.5F; WT rEETI 2.5F; not shown: C-terminal His tag of the knottin; Fc fragment of human IgG
B2: modified knottin 2.5F M, Fc fusion (Fc fusion)
chain: B1 chain with N9W, P10N, P11E, L12G
modifications: ends and bridges not checked; also: C-terminal His tag, number of His and linker not given here, fused at C-terminus to Fc fragment of human IgG
notes: Made by site-directed mutagenesis of the WT rEETI 2.5F construct; tested as culture supernatant; not shown: C-terminal His tag of the knottin; Fc fragment of human IgG
B3: modified knottin 2.5F M1, Fc fusion (Fc fusion)
chain: B1 chain with N9W, P10N
modifications: ends and bridges not checked; also: C-terminal His tag, number of His and linker not given here, fused at C-terminus to Fc fragment of human IgG
notes: as for B2
B4: wild-type integrin αVβ3 on cells (K562-αVβ3, M21, HEK293T) (receptor)
chain 1: FNLDVDSPAEYSGPEGSYFGFAVDFFVPSASSRMFLLVGAPKANTTQPGIVEGGQVLKCDWSSTRRCQPIEFDATGNRDYAKDDPLEFKSHQWFGASVRSKQDKILACAPLYHWRTEMKQEREPVGTCFLQDGTKTVEYAPCRSQDIDADGQGFCQGGFSIDFTKADRVLLGGPGSFYWQGQLISDQVAEIVSKYDPNVYSIKYNNQLATRTAQAIFDDSYLGYSVAVGDFNGDGIDDFVSGVPRAARTLGMVYIYDGKNMSSLYNFTGEQMAAYFGFSVAATDINGDDYADVFIGAPLFMDRGSDGKLQEVGQVSVSLQRASGDFQTTKLNGFEVFARFGSAIAPLGDLDQDGFNDIAIAAPYGGEDKKGIVYIFNGRSTGLNAVPSQILEGQWAARSMPPSFGYSMKGATDIDKNGYPDLIVGAFGVDRAILYRARPVITVNAGLEVYPSILNQDNKTCSLPGTALKVSCFNVRFCLKADGKGVLPRKLNFQVELLLDKLKQKGAIRRALFLYSRSPSHSKNMTISRGGLMQCEELIAYLRDESEFRDKLTPITIFMEYRLDYRTAADTTGLQPILNQFTPANISRQAHILLDCGEDNVCKPKLEVSVDSDQKKIYIGDDNPLTLIVKAQNQGEGAYEAELIVSIPLQADFIGVVRNNEALARLSCAFKTENQTRQVVCDLGNPMKAGTQLLAGLRFSVHQQSEMDTSVKFDLQIQSSNLFDKVSPVVSHKVDLAVLAAVEIRGVSSPDHIFLPIPNWEHKENPETEEDVGPVVQHIYELRNNGPSSFSKAMLHLQWPYKYNNNTLLYILHYDIDGPMNCTSDMEINPLRIKISSLQTTEKNDTVAGQGERDHLITKRDLALSEGDIHTLGCGVAQCLKIVCQVGRLDRGKSAILYVKSLLWTETFMNKENQNHSYSLKSSASFNVIEFPYKNLPIEDITNSTLVTTNVTWGIQPAPMPVPVWVIILAVLAGLLLLAVLVFVMYRMGFFKRVRPPQEEQEREQLQPHENGEGNSET
chain 2: GPNICTTRGVSSCQQCLAVSPMCAWCSDEALPLGSPRCDLKENLLKDNCAPESIEFPVSEARVLEDRPLSDKGSGDSSQVTQVSPQRIALRLRPDDSKNFSIQVRQVEDYPVDIYYLMDLSYSMKDDLWSIQNLGTKLATQMRKLTSNLRIGFGAFVDKPVSPYMYISPPEALENPCYDMKTTCLPMFGYKHVLTLTDQVTRFNEEVKKQSVSRNRDAPEGGFDAIMQATVCDEKIGWRNDASHLLVFTTDAKTHIALDGRLAGIVQPNDGQCHVGSDNHYSASTTMDYPSLGLMTEKLSQKNINLIFAVTENVVNLYQNYSELIPGTTVGVLSMDSSNVLQLIVDAYGKIRSKVELEVRDLPEELSLSFNATCLNNEVIPGLKSCMGLKIGDTVSFSIEAKVRGCPQEKEKSFTIKPVGFKDSLIVQVTFDCDCACQAQAEPNSHRCNNGNGTFECGVCRCGPGWLGSQCECSEEDYRPSQQDECSPREGQPVCSQRGECLCGQCVCHSSDFGKITGKYCECDDFSCVRYKGEMCSGHGQCSCGDCLCDSDWTGYYCNCTTRTDTCMSSNGLLCSGRGKCECGSCVCIQPGSYGDTCEKCPTCPDACTFKKECVECKKFDREPYMTENTCNRYCRDEIESVKELKDTGKDAVNCTYKNEDDCVVRFQYYEDSSGKSILYVVEEPECPKGPDILVVLLSVMGAILLIGLAALLIWKLLITIHDRKEFAKFEEERARAKWDTANNPLYKEATSTFTNITYRGT
notes: also called WT αVβ3; cellular αVβ3
B5: hFN10/B (designed binder)
chain: SDVPRDLEVVAATPTSLLISWDAPAVTVRYYRITYGETGGNSPVQEFTVPGSKSTATISGLKPGVDYTITVYAVIARGDWNDGSKPISINY
notes: hFN10 with the three residues flanking RGDWN changed to match barbourin; His tag as for hFN10

What was measured:
[1] = molecular target: B4; assay: flow cytometry on K562-αVβ3, culture supernatant, fluoresceinated anti-human Fc mAb, Ca2+/Mg2+
Procedure: (§1) Binding of soluble knottin dimers to αVβ3-K562 cells was expressed as mean fluorescence intensity (MFI), as determined using FlowJo software. […] Alexa647-labeled mAb AP5 Fab (10 μg/ml) was added, and cells incubated for an additional 30 min before washing. APC-labeled goat anti-mouse Fc-specific antibody was added to anti-LIBS-1- or anti-LIBS-6-bound M21 cells for an additional 30 min at 4° C. Cells were then washed, resuspended, fixed in 4% paraformaldehyde and analyzed by flow cytometry. AP5 epitope expression was measured and expressed as MFI.
as §1, with “Cells were washed, resuspended, fixed in 4% paraformaldehyde, and analyzed using FACSCalibur or BD-LSRII flow cytometers (BD Biosciences). Binding” for “Binding”, “Fe-specific” for “Fc-specific”

[2] = molecular target: T1, wild-type 10th type-III RGD-domain of human fibronectin (wtFN10) (human, UniProt P02751 1539-1631); assay: M21 cells, unlabeled FN10, AP5 read-out by flow cytometry
T1 construct: Expressed in bacteria with an N-terminal His tag (S1417-T1509) and a thrombin cleavage site; also called wild-type FN10
Procedure: (§2) K562-αVβ3 cells, transiently transfected HEK293T or αVβ3⁺ M21 cells (0.5×10⁶ in 100 μl WB) were incubated in the absence or presence of unlabeled soluble FN10 (5 μg) in Ca²⁺/Mg²⁺ or in Mn²⁺ (30 min; at 25° C.). Alexa647-labeled AP5 Fab (plus Alexa488-labeled AP3, when HEK293T cells were used), unlabeled anti-LIBS-1 (all to 10 μg/ml) or LIBS-6 ascites (to 1:50 dilution) were added, and the cells incubated for an additional 30 min before washing. APC-labeled goat anti-mouse Fc-specific antibody was added to anti-LIBS-1- or anti-LIBS-6-bound M21 cells, cells were incubated for an additional 30 min at 4° C. then washed, resuspended, fixed in 4% paraformaldehyde and analyzed by flow cytometry. LIBS epitope expression was measured and expressed as MFI (in case of K562-αVβ3 or M21 cells) and normalized (in case of HEK293T cells) by dividing its MFI by the MFI for Alexa488-labeled AP3, and multiplied by 100.

[3] = molecular target: B4; assay: as above
Procedure: as §2

B1: binds [1].

B2: binds [1].

B3: binds [1].

B4: binds [2].

B5: binds [3].
